One molecule from paper PMC3415792 (ACS chemical biology, 2011) can be followed below.

In data set [1] the target is soluble human CD40 extracellular domain (human). Kind of data set: SPR. A general note: Surface plasmon resonance follows binding to a sensor surface in real time, without labels.
The data set “crystal structure” concerns the molecule itself. Put plainly: crystal structure.

B1: myc tagged form of soluble human CD40L (ligand)
chain: NMGDQNPQIAAHVISEASSKTTSVLQWAEKGYYTMSNNLVTLENGKQLTVKRQGLYYIYAQVTFCSNREASSQAPFIASLCLKSPGRFERILLRAANTHSSAKPCGQQSIHLGGVFELQPGASVFVNVTDPSQVSHGTGFTSFGLLKL
modifications: glycan (3 glycan chains in the model of the trimer)
As to B1, in data set [1], the Kd was roughly 13 µM. The “stoichiometry N” value in “crystal structure” worked out at 3.

By Kd is commonly meant the equilibrium constant for the complex coming apart. Broadly, the stoichiometry N is the number of molecules, sites or subunits per partner or assembly.
